# Measured values from article PMC8242512.
# Molecular target: soluble trimeric SARS-CoV-2 S glycoprotein, 2P-stabilized, lacking the furin cleavage site (SARS-CoV-2) (UniProt P0DTC2)
# Test: SPR; S protein captured on a Ni2+-loaded NTA chip; ACE2 as analyte, serial dilutions 200 nM to 3.125 nM in triplicate, 50 ul/min, HBS P+ buffer, association 300 s, dissociation 600 s; 1:1 binding model (Biacore Evaluation Software)
# truncated soluble angiotensin-converting enzyme 2 (hACE2), sequence (Q9BYF1 18-626): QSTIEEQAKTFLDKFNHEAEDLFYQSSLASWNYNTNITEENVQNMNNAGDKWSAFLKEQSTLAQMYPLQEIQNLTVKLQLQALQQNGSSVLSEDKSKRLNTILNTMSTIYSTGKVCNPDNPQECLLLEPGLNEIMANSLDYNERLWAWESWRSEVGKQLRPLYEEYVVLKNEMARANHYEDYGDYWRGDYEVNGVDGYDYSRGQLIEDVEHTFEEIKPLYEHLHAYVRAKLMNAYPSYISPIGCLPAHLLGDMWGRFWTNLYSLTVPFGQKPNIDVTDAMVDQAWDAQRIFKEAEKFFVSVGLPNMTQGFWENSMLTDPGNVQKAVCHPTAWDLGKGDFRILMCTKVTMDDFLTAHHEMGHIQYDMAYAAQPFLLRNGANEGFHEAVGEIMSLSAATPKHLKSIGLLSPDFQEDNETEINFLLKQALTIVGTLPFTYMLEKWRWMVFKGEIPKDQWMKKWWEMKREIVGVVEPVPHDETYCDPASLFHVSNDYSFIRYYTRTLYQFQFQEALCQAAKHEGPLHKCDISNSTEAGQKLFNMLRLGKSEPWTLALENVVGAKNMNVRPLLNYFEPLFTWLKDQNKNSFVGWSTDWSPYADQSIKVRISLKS
substance,measurement,value
truncated soluble angiotensin-converting enzyme 2 (hACE2) (from UniProt Q9BYF1 18-626) (receptor),Kd,84 nM
